Drawing on paper PMC3795685, this text covers fold increase of the amount co-purified for one substance.

For this assay, the target named is TAP-tagged wild-type Infected Cell Polypeptide 4 (ICP4) of HSV-1 strain KOS (herpes simplex virus type 1 (HSV-1), strain KOS) (UniProt P08392). The experiment in a line: pull-down; streptavidin affinity purification of TAP-tagged ICP4 from nuclear extracts of infected Vero cells (3 or 6 hpi), independent samples; biotin eluates analysed by Western blot, in part quantified with a LI-COR Odyssey imager and normalised to ICP4; untagged virus as control.
Sequence of UniProt P08392 (P08392 whole entry): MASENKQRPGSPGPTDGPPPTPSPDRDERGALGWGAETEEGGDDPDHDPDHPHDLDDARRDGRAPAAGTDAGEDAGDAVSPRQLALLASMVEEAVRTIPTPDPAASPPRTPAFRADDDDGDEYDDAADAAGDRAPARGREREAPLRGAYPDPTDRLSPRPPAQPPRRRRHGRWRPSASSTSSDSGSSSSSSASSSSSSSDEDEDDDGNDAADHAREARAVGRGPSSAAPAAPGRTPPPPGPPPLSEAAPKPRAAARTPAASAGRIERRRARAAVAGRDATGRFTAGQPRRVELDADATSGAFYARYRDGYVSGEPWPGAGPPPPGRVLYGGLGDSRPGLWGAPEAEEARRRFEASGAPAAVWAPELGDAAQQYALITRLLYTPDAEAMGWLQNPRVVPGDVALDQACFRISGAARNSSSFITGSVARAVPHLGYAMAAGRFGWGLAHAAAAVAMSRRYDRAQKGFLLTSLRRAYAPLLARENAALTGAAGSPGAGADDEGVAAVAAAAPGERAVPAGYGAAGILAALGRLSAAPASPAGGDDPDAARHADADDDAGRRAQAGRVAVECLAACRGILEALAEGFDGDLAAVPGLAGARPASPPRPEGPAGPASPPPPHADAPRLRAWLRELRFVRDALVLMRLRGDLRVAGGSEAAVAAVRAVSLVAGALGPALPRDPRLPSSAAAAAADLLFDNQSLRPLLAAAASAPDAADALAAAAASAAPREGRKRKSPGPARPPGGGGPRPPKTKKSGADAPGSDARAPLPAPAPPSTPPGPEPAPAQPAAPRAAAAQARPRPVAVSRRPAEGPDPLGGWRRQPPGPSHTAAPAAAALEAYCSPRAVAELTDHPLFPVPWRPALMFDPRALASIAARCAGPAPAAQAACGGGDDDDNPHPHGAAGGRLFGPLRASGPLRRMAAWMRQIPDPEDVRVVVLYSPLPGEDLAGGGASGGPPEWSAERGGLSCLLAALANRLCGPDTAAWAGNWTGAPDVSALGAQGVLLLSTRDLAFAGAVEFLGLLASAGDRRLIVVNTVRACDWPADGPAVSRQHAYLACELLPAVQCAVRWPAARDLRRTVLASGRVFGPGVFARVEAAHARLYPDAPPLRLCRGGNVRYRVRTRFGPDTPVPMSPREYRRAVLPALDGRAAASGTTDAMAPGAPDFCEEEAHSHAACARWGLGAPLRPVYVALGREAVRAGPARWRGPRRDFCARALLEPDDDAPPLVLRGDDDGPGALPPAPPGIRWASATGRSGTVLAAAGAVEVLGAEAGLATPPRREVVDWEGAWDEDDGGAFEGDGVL

MED1 (natural protein): the fold increase of the amount co-purified at 6 hpi against 3 hpi (normalised to ICP4) was 3 fold.
